Assay results from the supplement of paper PMC11780869.

The sequences below were run on Bacillus subtilis (assay: cleaved RNA product abundance (RNA/gDNA barcode ratio) relative to median wild-type variant (ratio to wild type); higher = more accumulation of the downstream cleavage product). Settings: experiment (reporter, strain, medium): exp 8a: truncated aprE reporter, strain BJT201 with 2% xylose (RNase J1 expressed); cleavage site: glnRA (positions -5 to +31 mutated).
Summary of the method: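 Truncated aprE or tetM reporter mRNAs with barcoded RNase Y cleavage-site windows, mutagenized from oligos at a 9% error rate, sat in the B. subtilis chromosome. Cells grew in LB at 37°C from OD600 0.0003 to 0.3. Gel-selected cleaved RNA was reverse transcribed and its barcodes sequenced with those from genomic DNA, collapsing by UMI. Cleaved product abundance equals the RNA:gDNA barcode ratio per construct over the median construct with the unmutated site.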

Sequence | cleaved RNA product abundance
CGACATGTCCCGCTTCTTTCATTACTCCGTTAGCAACTGTTTTGCTATATACATTTACCGTTTAAGAGGAGGAAT | 1.01
CGACATGTCCCGCTTCTTTCATTACTCCGTTAGCAACTGTTTTGCTATATACATTTACCTTTTAAGAGGAGGAAT | 1.1
CGACATGTCCCGCTTCTTTCATTACTCCGTTAGCAACTGTTTTGCTATATACATTTACGTTTTAAGAGGAGGAAT | 0.893
CGACATGTCCCGCTTCTTTCATTACTCCGTTAGCAACTGTTTTGCTATATACATTTACTTTTTAAGAGGAGGAAT | 1.59
CGACATGTCCCGCTTCTTTCATTACTCCGTTAGCAACTGTTTTGCTATATACATTTATCTTTTAAGAGGAGGAAT | 1.8
CGACATGTCCCGCTTCTTTCATTACTCCGTTAGCAACTGTTTTGCTATATACATTTGCCTTTTAAGAGGAGGAAT | 0.366
CGACATGTCCCGCTTCTTTCATTACTCCGTTAGCAACTGTTTTGCTATATACATTTTCCTTTTAAGAGGAGGAAT | 0.403
CGACATGTCCCGCTTCTTTCATTACTCCGTTAGCAACTGTTTTGCTATATACGTTTACCTTTTAAGAGGAGGAAT | 0.332
CGACATGTCCCGCTTCTTTCATTACTCCGTTAGCAACTGTTTTGCTATATACTTTTACCTTTTAAGAGGAGGAAT | 0.592
CGACATGTCCCGCTTCTTTCATTACTCCGTTAGCAACTGTTTTGCTATATATATTTACCTTTTAAGAGGAGGAAT | 1.44
CGACATGTCCCGCTTCTTTCATTACTCCGTTAGCAACTGTTTTGCTATATCCATTTACCTTTTAAGAGGAGGAAT | 0.21
CGACATGTCCCGCTTCTTTCATTACTCCGTTAGCAACTGTTTTGCTATATGCATTTACCTTTTAAGAGGAGGAAT | 0.234
CGACATGTCCCGCTTCTTTCATTACTCCGTTAGCAACTGTTTTGCTATCTACATTTACCTTTTAAGAGGAGGAAT | 0.0823
CGACATGTCCCGCTTCTTTCATTACTCCGTTAGCAACTGTTTTGCTATGTACATTTACCTTTTAAGAGGAGGAAT | 0.117
CGACATGTCCCGCTTCTTTCATTACTCCGTTAGCAACTGTTTTGCTATTTACATTTACCTTTTAAGAGGAGGAAT | 0.151
CGACATGTCCCGCTTCTTTCATTACTCCGTTAGCAACTGTTTTGCTCTATACATTTACCTTTTAAGAGGAGGAAT | 0.288
CGACATGTCCCGCTTCTTTCATTACTCCGTTAGCAACTGTTTTGCTGTATACATTTACCTTTTAAGAGGAGGAAT | 0.372
CGACATGTCCCGCTTCTTTCATTACTCCGTTAGCAACTGTTTTGCTTTATACATATACCTTTTAAGAGGAGGAAT | 0.58
CGACATGTCCCGCTTCTTTCATTACTCCGTTAGCAACTGTTTTGGTATATACATTTACCTTTTAAGAGGAGGAAT | 0.278
CGACATGTCCCGCTTCTTTCATTACTCCGTTAGCAACTGTTTTGTTATATACATTTACCTTTTAAGAGGAGGAAT | 0.573
CGACATGTCCCGCTTCTTTCATTACTCCGTTAGCAACTGTTTTTCTATATACATTTACCTTTTAAGAGGAGGAAT | 0.594

Sequence | cleaved RNA product abundance
CGACATGTCCCGCTTCTTTCATTACTCCGTTAGCAACTGTTTTTCTATTTACATTTACCTTTTAAGAGGAGGAAT | 0.151
CGACATGTCCCGCTTCTTTCATTACTCCGTTAGCAACTTTTTTGCTATATACATTTACCTTTTAAGAGGAGGAAT | 2.09
CGACATGTCCCGCTTCTTTCATTACTCCGTTAGCAAGTGTTTTGCTATATACATTTACCTTTTAAGAGGAGGAAT | 0.557
CGACATGTCCCGCTTCTTTCATTACTCCGTTAGCAATTGTTTTGCTATATACATTTACCTTTTAAGAGGAGGAAT | 1.23
CGACATGTCCCGCTTCTTTCATTACTCCGTTAGCAGCTGTTTTGCTATATACATTTACCTTTTAAGAGGAGGAAT | 0.827
CGACATGTCCCGCTTCTTTCATTACTCCGTTAGCTACTGTTTTGCTATATACATTTACCTTTTAAGAGGAGGAAT | 0.923
CGACATGTCCCGCTTCTTTCATTACTCCGTTAGTAACGGTTTTGCTATATACATTTACCTTTTAAGAGGAGGAAT | 0.281
CGACATGTCCCGCTTCTTTCATTACTCCGTTAGTAACTGTTTTGCTATATACATTTACCTTTTAAGAGGAGGAAT | 0.482
CGACATGTCCCGCTTCTTTCATTACTCCGTTATCAACTGTTTTGCTATATACATTTACCTTTTAAGAGGAGGAAT | 0.227
CGACATGTCCCGCTTCTTTCATTACTCCGTTATGAACTGTTTTCCTATATACATTTACCTTTTAAGAGGAGGAAT | 0.316
CGACATGTCCCGCTTCTTTCATTACTCCGTTTACAACTGTTTTGCTATATACATTTACCTTTTAAGAGGAGGAAT | 0.368
CGACATGTCCCGCTTCTTTCATTACTCCGTTTGCAACTGTTTTGCTATATACATTTACCTTTTAAGAGGAGGAAT | 0.667
CGACATGTCCCGCTTCTTTCATTACTCCTTTAGCAACTGTTTTGCTATATACATTTACCTTTTAAGAGGAGGAAT | 0.376
CGACATGTCCCGCTTCTTTCATTACTCTGTTAGCAACTGTTTTGCTATATACATTTACCTTTTAAGAGGAGGAAT | 0.791
CGACATGTCCCGCTTCTTTCATTACTGCGTTAGCAACTGTTTTGCTATATACATTTACCTTTTAAGAGGAGGAAT | 1.68
CGACATGTCCCGCTTCTTTCATTACTTCGTTAGCAACTGTTTTGCTATATACATTTACCTTTTAAGAGGAGGAAT | 1.57
CGACATGTCCCGCTTCTTTCATTAGTCAGTTAGCAACTGTTTTGCTATATACATTTACCTTTTAAGAGGAGGAAT | 0.249
CGACATGTCCCGCTTCTTTCATTAGTCCGTTACCAACTGTTTTGCTATATACATTTACCTTTTAAGAGGAGGAAT | 0.248
CGACATGTCCCGCTTCTTTCATTAGTCCGTTAGCAACAGTTTTGCTATATACATTTACCTTTTAAGAGGAGGAAT | 0.968
CGACATGTCCCGCTTCTTTCATTAGTCCGTTAGCAACTGTTTTACTATATACATTTACCTTTTAAGAGGAGGAAT | 0.548
CGACATGTCCCGCTTCTTTCATTAGTCCGTTAGCAACTGTTTTCCTATATACATTTACCTTTTAAGAGGAGGAAT | 0.352

Sequence | cleaved RNA product abundance
CGACATGTCCCGCTTCTTTCATTAGTCCGTTAGCAACTGTTTTGATATATACATTTACCTTTTAAGAGGAGGAAT | 0.542
CGACATGTCCCGCTTCTTTCATTAGTCCGTTAGCAACTGTTTTGCTATATACATTTACCTTTTAAGAGGAGGAAT | 0.767
CGACATGTCCCGCTTCTTTCATTAGTCCGTTAGCAACTGTTTTGCTATATACTTTTACCTTTTAAGAGGAGGAAT | 0.341
CGACATGTCCCGCTTCTTTCATTAGTCCGTTAGCAACTGTTTTGCTATATATATTTACCTTTTAAGAGGAGGAAT | 0.842
CGACATGTCCCGCTTCTTTCATTAGTCCGTTAGTAACTGTTTTGCTATATACATTTACCTTTTAAGAGGAGGAAT | 0.335
CGACATGTCCCGCTTCTTTCATTATACCGTTAGCAACTGTTTTGCTATATACATTTACCTTTTAAGAGGAGGAAT | 2.04
CGACATGTCCCGCTTCTTTCATTATCCCGTTAGCAACTGTTTTGCTATATACATTTACCTTTTAAGAGGAGGAAT | 1.49
CGACATGTCCCGCTTCTTTCATTATCCCGTTAGCAACTGTTTTGCTATATACTTTTACCTTTTAAGAGGAGGAAT | 0.41
CGACATGTCCCGCTTCTTTCATTATCCGTTAGCAACTGTTTTGCTATATACATTTACCTTTTAAGAGGAGGAATT | 0.941
CGACATGTCCCGCTTCTTTCATTATGCCGTTAGCAACTGTTTTGCTATATACATTTACCTTTTAAGAGGAGGAAT | 1.32
CGACATGTCCCGCTTCTTTCATTATTACGTTACCAACTATTTTGCTATATACATTTATCTTTTAAGAGGAGGAAT | 0.242
CGACATGTCCCGCTTCTTTCATTATTACGTTAGCAACCGTTTTGCTATATACATTTACCTTTTAAGAGGAGGAAT | 1.06
CGACATGTCCCGCTTCTTTCATTATTACGTTAGCAACTGTTTTGCTATATACATTTACCTTTTAAGAGGAGGAAT | 1.27
CGACATGTCCCGCTTCTTTCATTATTCAGTTAGCAACTGTTTTGCTATATACATTTACCTTTTAAGAGGAGGAAT | 1.38
CGACATGTCCCGCTTCTTTCATTATTCCAATAGCAACTGTTTTGCTATATACATTTACCTTTTAAGAGGAGGAAT | 0.925
CGACATGTCCCGCTTCTTTCATTATTCCATTAGCAACTGTTTTGCTATATACATTTACCTTTTAAGAGGAGGAAT | 1.21
CGACATGTCCCGCTTCTTTCATTATTCCATTAGCAATTGTTTTGCTATATACATTTACCTTTTAAGAGGAGGAAT | 1.33
CGACATGTCCCGCTTCTTTCATTATTCCCTTAGCAACTGTTTTGCTATATACATTTACCTTTTAAGAGGAGGAAT | 0.221
CGACATGTCCCGCTTCTTTCATTATTCCGATAGCAACTATTTTGCTATATACATTTACCTTTTAAGAGGAGGAAT | 1.85
